Here are results for 125 sequences from the supplement of paper PMC9112550, “Optimization of the antimicrobial peptide Bac7 by deep mutational scanning” (BMC Biology, 2022).

In this series the test system is Escherichia coli TOP10. In words: shrunken log2 fold change of peptide-encoding DNA abundance (4.5 h post-induction vs induction); higher = less antimicrobial activity (less host growth inhibition). The conditions noted are these: time post-induction: 4.5 h; library: site-saturation at positions 5, 18, 19, 20.
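Note: peptides expressed intracellularly from a pBAD plasmid library in pooled LB shake-flask culture, induced with 0.3% L-arabinose, DNA abundance read by NGS, three biological replicates, DESeq2 with apeglm shrinkage.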

In the case of RRIRKRPPRLPRPRPRPYVRPRP, the “shrunken log2 fold change” value came to 0.00408.

For RRIRSRPPRLPRPRPRPETNPRP, the “shrunken log2 fold change” value is -0.0626.

As for RRIRCRPPRLPRPRPRPSMNPRP, the “shrunken log2 fold change” value was -0.757.

In the case of RRIRIRPPRLPRPRPRPTNNPRP, the “shrunken log2 fold change” value is -0.629.

For the sequence RRIRRRPPRLPRPRPRPTTKPRP, the “shrunken log2 fold change” value worked out at 0.0527.

Turning to RRIRERPPRLPRPRPRPLKQPRP, the “shrunken log2 fold change” value is -0.121.

Regarding RRIRTRPPRLPRPRPRPENHPRP, the “shrunken log2 fold change” value was -0.119.

Turning to RRIRCRPPRLPRPRPRPNHTPRP, the “shrunken log2 fold change” value is -0.536.

For RRIRQRPPRLPRPRPRPRYVPRP, the “shrunken log2 fold change” value was -0.215.

For RRIRFRPPRLPRPRPRPEAQPRP, the “shrunken log2 fold change” value was determined as 0.383.

In the case of RRIRQRPPRLPRPRPRPSFLPRP, the “shrunken log2 fold change” value was -0.355.

RRIRNRPPRLPRPRPRPDHAPRP: the “shrunken log2 fold change” value is -0.0118.

Consider RRIRRRPPRLPRPRPRPFEEPRP, for which the “shrunken log2 fold change” value came to 0.251.

With RRIRYRPPRLPRPRPRPPRLPRP, the “shrunken log2 fold change” value was determined as 0.0944.

On to RRIRVRPPRLPRPRPRPKTWPRP, for which the “shrunken log2 fold change” value amounted to 0.063.

Turning to RRIRIRPPRLPRPRPRPLKSPRP, the “shrunken log2 fold change” value was -0.325.

For the sequence RRIRKRPPRLPRPRPRPWPEPRP, the “shrunken log2 fold change” value was 0.0451.

As for RRIRIRPPRLPRPRPRPQKVPRP, the “shrunken log2 fold change” value is -0.102.

As for RRIRYRPPRLPRPRPRPEKGPRP, the “shrunken log2 fold change” value was -0.00176.

On to RRIRSRPPRLPRPRPRPFQVPRP, for which the “shrunken log2 fold change” value was -0.0848.

With RRIRLRPPRLPRPRPRPQSDPRP, the “shrunken log2 fold change” value is -0.205.

As for RRIRPRPPRLPRPRPRPCCKPRP, the “shrunken log2 fold change” value is -0.247.

With RRIRQRPPRLPRPRPRPERGPRP, the “shrunken log2 fold change” value is 0.105.

For the sequence RRIRNRPPRLPRPRPRPMIPPRP, the “shrunken log2 fold change” value is 0.0389.

For RRIRLRPPRLPRPRPRPFLSPRP, the “shrunken log2 fold change” value is -0.643.

For the sequence RRIRVRPPRLPRPRPRPFWQPRP, the “shrunken log2 fold change” value was found to be 0.181.

Consider RRIRRRPPRLPRPRPRPAGKPRP, for which the “shrunken log2 fold change” value came out at 0.211.

On to RRIRMRPPRLPRPRPRPAWDPRP, for which the “shrunken log2 fold change” value was 0.869.

For RRIRIRPPRLPRPRPRPHHKPRP, the “shrunken log2 fold change” value is -1.18.

As for RRIRLRPPRLPRPRPRPNHDPRP, the “shrunken log2 fold change” value was -0.333.

In the case of RRIRHRPPRLPRPRPRPTEFPRP, the “shrunken log2 fold change” value was -0.153.

In the case of RRIRLRPPRLPRPRPRPMHYPRP, the “shrunken log2 fold change” value is -0.094.

Regarding RRIRCRPPRLPRPRPRPDRYPRP, the “shrunken log2 fold change” value was 0.00956.

RRIRERPPRLPRPRPRPYKMPRP: the “shrunken log2 fold change” value is -0.0803.

For the sequence RRIRERPPRLPRPRPRPQCNPRP, the “shrunken log2 fold change” value was 0.117.

For the sequence RRIRCRPPRLPRPRPRPQHYPRP, the “shrunken log2 fold change” value is -0.796.

In the case of RRIRARPPRLPRPRPRPSGFPRP, the “shrunken log2 fold change” value came out at 0.0172.

For the sequence RRIRQRPPRLPRPRPRPVGCPRP, the “shrunken log2 fold change” value worked out at 0.23.

Turning to RRIRFRPPRLPRPRPRPMMEPRP, the “shrunken log2 fold change” value was -0.426.

Take RRIRMRPPRLPRPRPRPVLVPRP: the “shrunken log2 fold change” value was determined as 0.223.

With RRIRIRPPRLPRPRPRPLQAPRP, the “shrunken log2 fold change” value turned out to be 0.0546.

Consider RRIRVRPPRLPRPRPRPQGRPRP, for which the “shrunken log2 fold change” value is -0.0469.

With RRIRFRPPRLPRPRPRPSAPPRP, the “shrunken log2 fold change” value is -0.0675.

As to RRIRDRPPRLPRPRPRPHARPRP, the “shrunken log2 fold change” value stood at 0.0493.

In the case of RRIRVRPPRLPRPRPRPGRAPRP, the “shrunken log2 fold change” value came to 0.685.

On to RRIRERPPRLPRPRPRPSCDPRP, for which the “shrunken log2 fold change” value is -0.281.

As for RRIRHRPPRLPRPRPRPSERPRP, the “shrunken log2 fold change” value is -0.0252.

With RRIRVRPPRLPRPRPRPITSPRP, the “shrunken log2 fold change” value is -0.21.

With RRIRDRPPRLPRPRPRPQWAPRP, the “shrunken log2 fold change” value stood at 0.326.

For RRIRIRPPRLPRPRPRPLQLPRP, the “shrunken log2 fold change” value was -0.573.

As to RRIRLRPPRLPRPRPRPPHGPRP, the “shrunken log2 fold change” value was 0.223.

RRIRARPPRLPRPRPRPGGMPRP: the “shrunken log2 fold change” value turned out to be 0.337.

As for RRIRKRPPRLPRPRPRPFEVPRP, the “shrunken log2 fold change” value was -0.0185.

In the case of RRIRVRPPRLPRPRPRPNAVPRP, the “shrunken log2 fold change” value was -0.223.

In the case of RRIRDRPPRLPRPRPRPFAFPRP, the “shrunken log2 fold change” value came to 0.249.

RRIRHRPPRLPRPRPRPQGRPRP: the “shrunken log2 fold change” value is 0.027.

In the case of RRIRNRPPRLPRPRPRPIMSPRP, the “shrunken log2 fold change” value is -0.103.

As for RRIRARPPRLPRPRPRPRSPPRP, the “shrunken log2 fold change” value is 0.871.

For RRIRQRPPRLPRPRPRPLIGPRP, the “shrunken log2 fold change” value is -0.285.

Turning to RRIRHRPPRLPRPRPRPLNWPRP, the “shrunken log2 fold change” value is 0.0279.

With RRIRARPPRLPRPRPRPYESPRP, the “shrunken log2 fold change” value was -0.103.

Take RRIRCRPPRLPRPRPRPVMHPRP: the “shrunken log2 fold change” value is -0.212.

For the sequence RRIRTRPPRLPRPRPRPFPVPRP, the “shrunken log2 fold change” value was -0.177.

RRIRPRPPRLPRPRPRPALHPRP: the “shrunken log2 fold change” value was 0.681.

Consider RRIRQRPPRLPRPRPRPPYEPRP, for which the “shrunken log2 fold change” value is -0.114.

In the case of RRIRYRPPRLPRPRPRPSLAPRP, the “shrunken log2 fold change” value turned out to be 0.0395.

Consider RRIRYRPPRLPRPRPRPLKHPRP, for which the “shrunken log2 fold change” value is -1.82.

As to RRIRFRPPRLPRPRPRPCKKPRP, the “shrunken log2 fold change” value is -0.000348.

Regarding RRIRYRPPRLPRPRPRPGFFPRP, the “shrunken log2 fold change” value is -0.205.

Turning to RRIRERPPRLPRPRPRPAFDPRP, the “shrunken log2 fold change” value was determined as 0.107.

On to RRIRRRPPRLPRPRPRPYWQPRP, for which the “shrunken log2 fold change” value is -0.0961.

Consider RRIRDRPPRLPRPRPRPQLAPRP, for which the “shrunken log2 fold change” value came out at 0.505.

As for RRIRSRPPRLPRPRPRPTFGPRP, the “shrunken log2 fold change” value was -0.0366.

On to RRIRKRPPRLPRPRPRPMIGPRP, for which the “shrunken log2 fold change” value came to 0.0437.

As to RRIRARPPRLPRPRPRPQLFPRP, the “shrunken log2 fold change” value turned out to be 0.18.

As for RRIRYRPPRLPRPRPRPESLPRP, the “shrunken log2 fold change” value was -0.0595.

On to RRIRPRPPRLPRPRPRPQVQPRP, for which the “shrunken log2 fold change” value was -0.148.

Consider RRIRGRPPRLPRPRPRPHVDPRP, for which the “shrunken log2 fold change” value stood at 0.0583.

Consider RRIRKRPPRLPRPRPRPSFCPRP, for which the “shrunken log2 fold change” value was -0.0321.

Regarding RRIRERPPRLPRPRPRPGRVPRP, the “shrunken log2 fold change” value was 0.195.

In the case of RRIRFRPPRLPRPRPRPERHPRP, the “shrunken log2 fold change” value was -0.00647.

For the sequence RRIRDRPPRLPRPRPRPPAWPRP, the “shrunken log2 fold change” value turned out to be 0.811.

Turning to RRIRLRPPRLPRPRPRPMLTPRP, the “shrunken log2 fold change” value was found to be 0.0606.

For the sequence RRIRVRPPRLPRPRPRPVCSPRP, the “shrunken log2 fold change” value is -0.11.

As to RRIRLRPPRLPRPRPRPIDYPRP, the “shrunken log2 fold change” value was -0.0867.

Take RRIRTRPPRLPRPRPRPKYQPRP: the “shrunken log2 fold change” value is -0.68.

For the sequence RRIRPRPPRLPRPRPRPQDNPRP, the “shrunken log2 fold change” value is -0.548.

As to RRIRERPPRLPRPRPRPWTFPRP, the “shrunken log2 fold change” value is -0.292.

Turning to RRIRSRPPRLPRPRPRPHTQPRP, the “shrunken log2 fold change” value is -0.433.

As to RRIRVRPPRLPRPRPRPPNLPRP, the “shrunken log2 fold change” value was 0.239.

For RRIRDRPPRLPRPRPRPKPTPRP, the “shrunken log2 fold change” value was 0.0678.

For the sequence RRIRPRPPRLPRPRPRPKCTPRP, the “shrunken log2 fold change” value was -0.0758.

On to RRIRLRPPRLPRPRPRPVLAPRP, for which the “shrunken log2 fold change” value was determined as 0.104.

On to RRIRYRPPRLPRPRPRPQNTPRP, for which the “shrunken log2 fold change” value is -1.07.

For the sequence RRIRPRPPRLPRPRPRPTEMPRP, the “shrunken log2 fold change” value was found to be 0.218.

Take RRIRWRPPRLPRPRPRPQHWPRP: the “shrunken log2 fold change” value is 0.0364.

With RRIRTRPPRLPRPRPRPEMRPRP, the “shrunken log2 fold change” value turned out to be 0.825.

RRIRFRPPRLPRPRPRPQLVPRP: the “shrunken log2 fold change” value was -0.117.

As to RRIRQRPPRLPRPRPRPKCRPRP, the “shrunken log2 fold change” value is -0.0264.

In the case of RRIRYRPPRLPRPRPRPRPPPRP, the “shrunken log2 fold change” value worked out at 1.01.

Take RRIRHRPPRLPRPRPRPNAKPRP: the “shrunken log2 fold change” value is -0.117.

For RRIRLRPPRLPRPRPRPFHEPRP, the “shrunken log2 fold change” value is -0.101.

Consider RRIRERPPRLPRPRPRPYSQPRP, for which the “shrunken log2 fold change” value is -0.443.

Consider RRIRQRPPRLPRPRPRPTHHPRP, for which the “shrunken log2 fold change” value worked out at 0.0945.

Regarding RRIRMRPPRLPRPRPRPFFIPRP, the “shrunken log2 fold change” value is -0.247.

As for RRIRWRPPRLPRPRPRPMCEPRP, the “shrunken log2 fold change” value was -0.0562.

Consider RRIRHRPPRLPRPRPRPKEDPRP, for which the “shrunken log2 fold change” value came out at 2.87.

On to RRIRRRPPRLPRPRPRPQGAPRP, for which the “shrunken log2 fold change” value is -0.0933.

In the case of RRIRVRPPRLPRPRPRPCPMPRP, the “shrunken log2 fold change” value is -0.0643.

As for RRIRWRPPRLPRPRPRPDCPPRP, the “shrunken log2 fold change” value came to 0.0548.

Regarding RRIRLRPPRLPRPRPRPHPKPRP, the “shrunken log2 fold change” value was -0.0255.

In the case of RRIRNRPPRLPRPRPRPNDHPRP, the “shrunken log2 fold change” value was -0.153.

With RRIRTRPPRLPRPRPRPEMQPRP, the “shrunken log2 fold change” value was -0.00136.

As to RRIRCRPPRLPRPRPRPHEGPRP, the “shrunken log2 fold change” value is -0.172.

Regarding RRIRARPPRLPRPRPRPEWVPRP, the “shrunken log2 fold change” value is 0.775.

Consider RRIRGRPPRLPRPRPRPKKGPRP, for which the “shrunken log2 fold change” value was determined as 0.765.

RRIRRRPPRLPRPRPRPDMQPRP: the “shrunken log2 fold change” value is 0.272.

Turning to RRIRNRPPRLPRPRPRPYKNPRP, the “shrunken log2 fold change” value is -0.941.

Regarding RRIRPRPPRLPRPRPRPDIRPRP, the “shrunken log2 fold change” value is -0.0755.

In the case of RRIRHRPPRLPRPRPRPGQSPRP, the “shrunken log2 fold change” value is -0.0176.

Consider RRIRHRPPRLPRPRPRPFDEPRP, for which the “shrunken log2 fold change” value is -0.173.

On to RRIRLRPPRLPRPRPRPDSTPRP, for which the “shrunken log2 fold change” value was -0.603.

Turning to RRIRWRPPRLPRPRPRPTFCPRP, the “shrunken log2 fold change” value is 0.478.

As for RRIRMRPPRLPRPRPRPSHSPRP, the “shrunken log2 fold change” value was -0.266.

In the case of RRIRTRPPRLPRPRPRPPAGPRP, the “shrunken log2 fold change” value was found to be 0.279.
